Laboratory results from article PMC12748588, “Cryo-EM structures of plant Augmin reveal coiled-coil assembly, antiparallel dimerization, and NEDD1 binding” (Nature Communications, 2025).

T1: AUG5 with C-terminal 8xHis tag (subunit of the hetero-octamer) (A. thaliana, UniProt Q9FMB4 1-796)
T1 construct: AUGMIN subunit 5 (AUG5), A. thaliana; subunit ORF in pET3a, assembled into the eight-subunit polycistronic vector; Subunit of m1; the assembly was captured on Ni-IDA by this chain; also called AUG5 (His); not shown: His8, C-terminal, kept
T1 sequence (looked up): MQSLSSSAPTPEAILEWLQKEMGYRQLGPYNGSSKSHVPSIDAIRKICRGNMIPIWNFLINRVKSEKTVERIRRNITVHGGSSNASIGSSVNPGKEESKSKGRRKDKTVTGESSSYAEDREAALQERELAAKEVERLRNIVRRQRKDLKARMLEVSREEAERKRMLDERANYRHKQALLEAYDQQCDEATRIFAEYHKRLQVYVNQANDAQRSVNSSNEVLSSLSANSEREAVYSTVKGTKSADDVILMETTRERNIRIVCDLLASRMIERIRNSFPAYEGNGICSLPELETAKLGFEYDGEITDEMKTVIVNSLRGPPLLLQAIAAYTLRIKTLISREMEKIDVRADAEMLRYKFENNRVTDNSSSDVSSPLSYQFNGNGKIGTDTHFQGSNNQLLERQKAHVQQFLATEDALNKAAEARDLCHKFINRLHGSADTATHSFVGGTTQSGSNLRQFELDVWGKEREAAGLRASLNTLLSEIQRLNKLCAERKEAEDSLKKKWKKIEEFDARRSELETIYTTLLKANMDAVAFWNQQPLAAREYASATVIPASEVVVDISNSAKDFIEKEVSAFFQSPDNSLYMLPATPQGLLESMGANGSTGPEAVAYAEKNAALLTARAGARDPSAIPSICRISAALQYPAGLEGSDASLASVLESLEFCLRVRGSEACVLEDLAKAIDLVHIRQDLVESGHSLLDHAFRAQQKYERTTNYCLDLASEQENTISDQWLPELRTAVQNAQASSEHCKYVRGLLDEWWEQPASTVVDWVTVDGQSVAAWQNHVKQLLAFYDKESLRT

T2: AUG5 with C-terminal GFP and His tags (subunit of the hetero-tetramer) (A. thaliana, UniProt Q9FMB4 1-796)
T2 construct: AUGMIN subunit 5 (AUG5), A. thaliana; subunit ORF in the four-subunit polycistronic vector; Subunit of m2; source: E. coli SoluBL21, co-expressed with AUG1, AUG3 and AUG4, purified as part of the assembly (Ni-IDA, Q-FF, Superdex 200); not shown: His tag, C-terminal, kept
T2 sequence (looked up): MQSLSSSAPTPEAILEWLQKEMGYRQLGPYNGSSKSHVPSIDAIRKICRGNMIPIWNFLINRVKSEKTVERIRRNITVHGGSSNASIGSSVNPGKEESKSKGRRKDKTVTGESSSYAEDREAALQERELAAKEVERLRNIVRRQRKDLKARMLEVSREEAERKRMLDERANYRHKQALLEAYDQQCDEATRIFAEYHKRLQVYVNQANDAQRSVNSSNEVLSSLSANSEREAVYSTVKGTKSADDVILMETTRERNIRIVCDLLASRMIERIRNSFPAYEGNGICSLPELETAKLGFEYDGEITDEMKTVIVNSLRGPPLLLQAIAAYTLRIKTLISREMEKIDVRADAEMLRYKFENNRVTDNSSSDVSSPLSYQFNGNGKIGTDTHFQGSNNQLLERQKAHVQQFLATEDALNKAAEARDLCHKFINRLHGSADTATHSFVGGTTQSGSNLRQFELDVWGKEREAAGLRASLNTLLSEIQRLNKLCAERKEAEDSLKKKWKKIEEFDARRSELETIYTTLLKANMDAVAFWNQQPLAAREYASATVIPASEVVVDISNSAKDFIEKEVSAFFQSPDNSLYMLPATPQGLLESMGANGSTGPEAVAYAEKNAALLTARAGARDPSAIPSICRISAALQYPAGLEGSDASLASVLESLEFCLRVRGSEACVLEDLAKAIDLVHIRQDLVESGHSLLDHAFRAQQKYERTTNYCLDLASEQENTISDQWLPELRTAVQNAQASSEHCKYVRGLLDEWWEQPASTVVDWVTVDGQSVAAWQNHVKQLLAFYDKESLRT


Columns and labels:
Experiment in all cases: SEC-MALS + other: mass photometry; co-expressed assemblies purified by Ni-IDA (AUG5 His tag), Q-FF and gel filtration; subunits confirmed by SDS-PAGE and mass spectrometry; SEC-MALS on Superdex 200 Increase 10/300, 200 µL at 1 mg/mL, 50 mM HEPES pH 7.5, 200 mM KCl, 1 mM MgCl2, 1 mM EGTA
[1] = target: AUG5 with C-terminal 8xHis tag (subunit of the hetero-octamer) (A. thaliana) (UniProt Q9FMB4)
[2] = target: T1, AUG5 with C-terminal 8xHis tag (subunit …); details: both partners purified
[3] = target: T2, AUG5 with C-terminal GFP and His tags …; details: both partners purified

Sequence of AUG8 C-terminal region (residues 383-644) (Q9SUH5 383-644): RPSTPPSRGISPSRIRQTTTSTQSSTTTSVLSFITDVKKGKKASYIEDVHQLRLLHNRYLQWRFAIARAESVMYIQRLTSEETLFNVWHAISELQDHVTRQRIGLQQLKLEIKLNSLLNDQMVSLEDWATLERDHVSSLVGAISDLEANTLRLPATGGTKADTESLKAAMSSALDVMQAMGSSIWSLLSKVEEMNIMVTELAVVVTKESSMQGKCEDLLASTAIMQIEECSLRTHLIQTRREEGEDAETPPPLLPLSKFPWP

stoichiometry N (subunit per assembly) [1] | stoichiometry N [2] [subunit per assembly] | stoichiometry N [3] [subunit per assembly] | Molecule
1 | – | – | AUG8 C-terminal region (residues 383-644) (from UniProt Q9SUH5 383-644) (domain or fragment)
– | 1 | 1 | AUG4 (A. thaliana Augmin subunit 4) (natural protein, UniProt Q8GYM3 1-423, looked up, AUGMIN subunit 4 (AUG4), A. thaliana; subunit ORF in pET3a, assembled into polycistronic vectors; Subunit of m1 and m2; source: E. coli SoluBL21, co-expressed with the other Augmin subunits, purified as part of the assembly) MVKALQGAAQNLPADVNQLIDQLERHCLAPDGSLVTKSVYSDLQLAREEMSRERLRYLEAMAIYCEAVAMVEEYQQAISVANHGGIRDVQGLYPQLGLKNSPQVYETLEHRLVVAEAAQKLRLPLISDGGEIHEEEIEKWSILSRSSLDSASTSFTISSTSNSVNYANSSANSVAGGISLSAVDTDVVGGVPNRFLGITPAYLSYVQLQNTISMDMADYQMFLAREIEGRLKEKCDKLADAIVDDTDSSTGNRNSSARLPERVKFIIEEIERDEAALREDLYSADRKFAEYYNVLEQILGVLIKLVKDLKLEHQHKYNEMQKTWLCKRCETMNAKLRVLENVLLLETYTPDSISALHNIRNYLVEATEEASAAYNKAVTRLREYQGVDPHFDTIARQYHDIVKKLENMQWTIHQVEMDLKSHD
– | 1 | – | AUG6 with C-terminal StrepII tag (natural protein, A. thaliana, UniProt Q94BP7 1-741, looked up, AUGMIN subunit 6 (AUG6), A. thaliana; ORF in pET3a, assembled into a polycistronic vector; N-terminal CH domain; its C-terminal region is prone to degradation; Subunit of m1; also called AUG6-StrepII; source: E. coli SoluBL21, co-expressed with the other Augmin subunits, purified as part of the assembly) MTMDREKERELELESAMYTNCLLLGLDPNVIGLGASNGTPRVGLFRHSNPKLGEQLLYFILSSLRGPAQSSKDFDKVWPIFDSAQSRDFRKVVQAIISELESQGALPRSNSRVSSLATCCGPRFVELLWQLSLHALREVHRRTFPADVASNPLPSSLTDVSFSHAATLLPVTKARIVLERRRFLKNAETAVQRQAMWSNLAHEMTAEFRGLCAEEAYLQQELEKLNDLRNKVKQEGEVWDDLVSSSSQNSHLVSKATRLWDSIMARKGQHEVLASGPIEDLIAHREHRYRISGSALLAAMDQSSQVPRAELLSAHSDDSASLADDKELSDGSYTNMHDHSLVDSFETASSQASDETLSRVDDRGGKINQTVDVAEVIRRWTHALQRIHKQSLLLAKANDGDGPDILRTASDGGTSGHVESLAATLTEHQQHLASFQVLINQLKEVSPAIQKSISECTEMVNSLPPTLPPVTRSNGQASSLLQSQGSGRIMEGVSNDVAELTSTMSNVQLEKVSASPTLKLPQLFSSTPTSSGKGGNGQKRQTMASQVNKMESLSEKNSTDQALSNARPDNLPTDTSSSFVHNLKKSVREAALLIPSSAGSSRDSQSDEGSEHYFVPLSATGFSRFPSETKALPLRGSRALTSLSEPSFLEPNVPDSFAPSKYSDIPDTYDDLDSFKDYDNGNGFLSVAGSNSVASDAQQSFYDIDDQVFSPPLLMDSSLLSDAYEDLLAPLSETEAALMEH
– | 1 | – | AUG7 (A. thaliana Augmin subunit 7) (natural protein, UniProt Q0WTP1 1-329, looked up, AUGMIN subunit 7 (AUG7), A. thaliana; codon-optimised ORF in pET3a, assembled into a polycistronic vector; N-terminal CH domain; Subunit of m1; source: E. coli SoluBL21, co-expressed with the other Augmin subunits, purified as part of the assembly) MAAKQMEEIQKKLRLLSYPRANAPAQSLLFAGMERYALLEWLFFKLLGDKSPFSQQNLQGDAGVRDEETVRIQYLAEIAKFLGITPTVDIEAIQGHGTYEDRMEMLRNIVDLVEASLFSDNQEWSIDEQVAKDIQLIDAIAERQSLIFSEECKLFPADVQIQSIYPLPDVSELETKLSEQAKILSNLQQKVDDLAAKHAYNPDEEYTEVESQLRARLESFLETARAFNTIYTKEIRPWTHMMEVPQLHGFGPAANRLLEAYNMLLKFLGNLKNLRDSHAALSIGSSGTVAGEPSSVTRIVSDCEAALTVLNRDLGILSASIAREQGERL

The remaining lines, values behind:

Molecule | stoichiometry N (subunit per assembly) [1] | stoichiometry N [2] [subunit per assembly] | stoichiometry N [3] [subunit per assembly]
AUG1 (A. thaliana Augmin subunit 1) (natural protein, UniProt F4IK01 1-299, looked up, AUGMIN subunit 1 (AUG1), A. thaliana; subunit ORF in pET3a, assembled into polycistronic vectors; Subunit of m1 and m2; source: E. coli SoluBL21, co-expressed with the other Augmin subunits, purified as part of the assembly) MSDVTGDLAAVSEAKGGSDAARISEVKAWLTSQFEAVGKEVPNFEYTHRSITHLYNLATASQAKSQAATIVANDFRLKASEYRAQAARIREILESAGMSQESLPSNVVSSAQVLANVANLLNIRDTELSSFLVAMGDISLRKTGVEEKRAKAQKESNALLDYTRKAIQRLTYLKKILAQLEDDVVPCESQMENWKTNLEVMAVKEEQYIQQYKKYEQMLLNRVGYTPKISHRELVEMAEHRKELDKMTKPVLDTLRSYQDLPPDKALAALAIEDKKRQFTAAEKYLEEVLQSALETNDE | – | 1 | 1
AUG2 (A. thaliana Augmin subunit 2) (natural protein, UniProt O48767 1-296, looked up, AUGMIN subunit 2 (AUG2), A. thaliana; codon-optimised ORF in pET3a, assembled into a polycistronic vector; Subunit of m1; source: E. coli SoluBL21, co-expressed with the other Augmin subunits, purified as part of the assembly) MSMGGDTTWVGKKPIRRIGGLSDALSIASDLGFAVAPPPSQEELQSFASSNGERGDDLIRVLRELSVVQRKIADLQVELQGRKDDKNVAHLTHVGEMQKKIETLSRITQILKDVIQNKDRIIARLQQPYSLDCIPVEAEYQKQFSELLMKAASDYGALTASVSDFQWSQNFKEPPSVWGEMLRPIPVALASCTRFFEAMSAMRESFATLQELRVGNSAVSLPTTPGGNEMTHRDSDCVTPPQGRIESSFDDLAVHKTRRQNNDQNEEEEEEEEEEDGNNNGNRRLSWPPSVKKSSV | – | 1 | –
AUG3 (A. thaliana Augmin subunit 3) (natural protein, UniProt Q0WQE7 1-617, looked up, AUGMIN subunit 3 (AUG3), A. thaliana; subunit ORF in pET3a, assembled into polycistronic vectors; Subunit of m1 and m2; source: E. coli SoluBL21, co-expressed with the other Augmin subunits, purified as part of the assembly) MSSARLCSLVAELGYEGAGKLDPDSFEWPFQYDDARPILDWICSSLRPSNVLSLAELSLYEQFQRDGKLLEGDDLDQAYDSISAFSSRRNNQEAVFGAEESIKEVRDATLAHKAEALELQRQLRRLQTQYDLLTGQSSALIQGRRARVAATSAVSGQITAIEDSLSARNLQMNGVLGRLASTSQELAHYHSGEEDGIYLAYSDFHAYLAGDSACTKELNQWFAKQLDTGPYRLVAEEGKSKCSWVSLDDTSNMLRDLEKSQHQRVAELQRLRSIFGTSERQWIEAQVENAKQQAILLTLKSQVTSVEAHIHFDLHSLRRKHADLVEEISTLYQKEEKLLSETIPELCWELAQLQDTYILQGDYDLKVMRQELYISKQKVFINHLVNQLARHQFLKLACQLEKKNMLGAFSLLKVIESELQGYLSATRSRVGRCSALIQAASDVQEQGAVDDRDSFLHGVRDLLSIHSNTQAGLSTYVSAPAIIQQIVALQSDLSSLQSDLENSLPDDRNRCINELCTHIQNLQQLLFASSTTAQPILTPWPLMKELDEMGKINSKLSTAVEEVTLEHRNKREIVKHHAKDVELQRRVFVDFFCNPERLRNQVRELNALVRARQASSS | – | 1 | 1
